From patent US10731143B2, “Methods and compositions for stabilizing trans-splicing intein modified proteases” (AGRIVIDA, INC., priority 2014, dated 2020)

B1: Savinase: extracellular alkaline protease from Bacillus lentus (Uniprot P29600), SEQ ID NO: 6; Novozymes stock, intein unmodified reference enzyme (protein, listed as Bacillus lentus)
chain: MKKPLGKIVASTALLISVAFSSSIASAAEEAKEKYLIGFNEQEAVSEFVEQVEANDEVAILSEEEEVEIELLHEFETIPVLSVELSPEDVDALELDPAISYIEEDAEVTTMAQSVPWGISRVQAPAAHNRGLTGSGVKVAVLDTGISTHPDLNIRGGASFVPGEPSTQDGNGHGTHVAGTIAALNNSIGVLGVAPSAELYAVKVLGASGSGSVSSIAQGLEWAGNNGMHVANLSLGSPSPSATLEQAVNSATSRGVLVVAASGNSGAGSISYPARYANAMAVGATDQNNNRASFSQYGAGLDIVAPGVNVQSTYPGSTYASLNGTSMATPHVAGAAALVKQKNPSWSNVQIRNHLKNTATSLGSTNLYGSGLVNAEAATR
modifications: (1)..(380) Savinase P29600

Experiments:
[1] = Formulation protocols and long term stability in 60% Detergent-1 under accelerated ageing; format: physicochemical; settings: 1M KCl, sequential mixing of NI and IC into 60% Detergent-1
Protocol: FIG. 12 illustrates comparison of alternative protocols to detergent formulate NI and IC and evaluated formulations for long term stability. Two formulation protocols as follows were compared: 1) formulation by sequential mixing of unsalted NI and IC to the detergent (detergent+NI+IC) and 2) formulation of KCl stabilized (NI+IC) premix to detergent. Detergent-1 was used at 60% (v/v) in two formats, either without supplement (−), or KCl supplement was added to 1M final concentration (+). Purified NI and IC were each used at benchmarking conc. to 1% (v/v) Savinase, at 38.1 μmolar concentration each. (NI+IC) premix was prepared and formulated to the detergent essentially as described in Example 7. Formulations were stored at 37° C. under accelerated ageing conditions and storage stabilities were tested by assaying retention of dilution inducible iProtease activity over 8 weeks at t=0, 1, 3, 6 and 8 weeks in storage. Dilution inducible activity was assayed in sequential dilutions to assay buffer, from 40- to 5120-fold dilutions as described in Example 7. iProtease activities at the 2 min time point reads of the 1:1280-fold dilutions were normalized to dilution induced iProtease activity of the (NI+IC) premix in detergent without salt at t=0 and were plotted.

[2] = Suppression of protease activity in Detergent-1 formulations; format: biochemical; settings: formulations in Detergent-1
[3] = Stability of stain removal activity in three detergents under accelerated ageing; settings: 37° C., up to 4 weeks, normalized to t=0
Protocol: Formulations made for Example 15 were stored under accelerated ageing conditions at 37° C., and were evaluated for stain removal activity at five time points, at t=0, 1, 2, 3, and 4 weeks in storage.
The blood/milk/ink stained fabric of EMPA 117 was used in wash tests as described in Example 15. FIG. 17 illustrates stain removal stability under accelerated ageing conditions in three detergents. Three replicate washes were performed from each formulation at each time point. Referring to this figure, white light reflectance of the washed EMPA117 fabrics were normalized to their corresponding t=0 samples and were graphed.

[4] = Protease activity of KCl stabilized (NI+IC) premix and Savinase assayed in KCl; format: biochemical; settings: formulated to 1M KCl aqueous buffer, diluted in KCl
Protocol: iProtease activity was benchmarked to 1% (v/v) Savinase. Formulation of (NI+IC) and Savinase to 1M KCl aqueous buffer was the same as in Example 1, but enzyme activity was assayed in 2M KCl as follows: In a clear flat-bottomed half-volume 96 well plate, row A wells were preloaded with […] pH˜9.0, 50 μl 4 M KCl, and 35 μL H2O. Rows B-H were preloaded with 5 μl 1×BR buffer pH˜9.0, 25 μL 4 M KCl, and 20 μL H2O. 5 μl (NI+IC) formulation was added to row A, mixed by pipetting, then 50 μL of this 20× diluted sample was added to the 50 μl salt, buffer, and water in row B and mixed. […] This process of 2× serial dilutions was repeated for rows C-H. All samples were diluted an addition 2× by adding 50 μL 500 μM suc-FAAF-pNA (in 20% DMSO) substrate, yielding samples diluted from 40× in row A to 5120× in row H. Protease activity was assayed by reading absorbance at 400 nm at 30° C. FIGS. 9A-9B illustrate that KCl stabilized (NI+IC) premix has no enzyme activity. FIG. 9A illustrates iProtease activity of the 80-fold diluted (NI+IC) premix. […].

[5] = Stability of dilution inducible protease activity in three detergents under accelerated ageing; format: physicochemical; settings: Savinase without the stabilizer (dialyzed), 37° C., up to 4 weeks
Protocol: Detergents were: Detergent-1, Detergent-2 and Detergent-3. For benchmarking 1% (v/v) Savinase was used, but instead of formulating the inhibitor stabilized form, the inhibitor was first removed by three steps of overnight dialysis of 0.5 mL Savinase against 5 L mTSB buffer at 4° C. using a Tube-O-Dialyzer Medi (4000 Da; GBiosciences). Volume of dialyzed Savinase in mTSB were adjusted to 1.5 mL, and 3 μL dialyzed aliquot treated with equal volume of 4M KCL was used to formulate 100 μL detergent to get 1% (v/v) of the Savinase. Sample handling was essentially the same as in Example 8, except that formulations were made to 65% detergents supplemented with KCL to 1M final conc.
Purified NI and IC were used at equimolar conc. to 1% (v/v) dialyzed Savinase, at […] concentration each. (NI+IC) premix in 2M KCl was prepared as described in Example 7, and formulations were made to 65% detergents supplemented with KCl to 1M final conc.
Detergent formulations were stored under accelerated ageing conditions at 37° C. Residual protease activities were assayed at five time points, at t=0, 1, 2, 3, and 4 weeks, in serial dilutions to assay buffer as described before. The 2 min reads of 1:2560-fold dilutions of each formulation was normalized to the t=0 as 100% and graphed. […]

Row | Molecule | boost of dilution inducible iProtease activity by supplementing the detergent [1] | effect of Detergent-1 on protease activity [2] | stain removal activity after storage [3] | effect of 1M KCl on protease activity [4] | loss of initial enzyme activity [5]
1 | [Cl-].[K+] [KCl, potassium chloride] | approximately 3 fold |  |  |  | 
2 | B1 |  | did not suppress | full stain removal activity | did not inhibit protease activity | 25-70%
